Experimental findings from US20230212312A1 are described below.

For this test, the target named is complement factor C1q. The test is described as follows: FACS, C1q on antibody-coated BT-474 cells, 10 ug/ml each.
Chain of complement factor C1q (P02745 23-245, chain 1 of 3): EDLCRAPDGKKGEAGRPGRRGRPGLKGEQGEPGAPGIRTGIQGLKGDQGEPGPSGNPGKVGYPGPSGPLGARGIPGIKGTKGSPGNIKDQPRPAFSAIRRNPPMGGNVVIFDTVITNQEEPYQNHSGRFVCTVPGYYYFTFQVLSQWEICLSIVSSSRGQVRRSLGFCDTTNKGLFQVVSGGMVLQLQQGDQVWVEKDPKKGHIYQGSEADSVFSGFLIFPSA
Chain of complement factor C1q (P02746 28-253, chain 2 of 3, further chain): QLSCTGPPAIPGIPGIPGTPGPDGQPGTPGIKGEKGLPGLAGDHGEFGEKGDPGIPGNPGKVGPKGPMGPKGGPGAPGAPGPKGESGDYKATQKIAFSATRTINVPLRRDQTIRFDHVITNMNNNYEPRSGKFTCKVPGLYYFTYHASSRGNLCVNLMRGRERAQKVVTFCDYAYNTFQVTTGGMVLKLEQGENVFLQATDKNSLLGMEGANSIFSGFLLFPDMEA
Chain of complement factor C1q (P02747 29-245, chain 3 of 3, further chain): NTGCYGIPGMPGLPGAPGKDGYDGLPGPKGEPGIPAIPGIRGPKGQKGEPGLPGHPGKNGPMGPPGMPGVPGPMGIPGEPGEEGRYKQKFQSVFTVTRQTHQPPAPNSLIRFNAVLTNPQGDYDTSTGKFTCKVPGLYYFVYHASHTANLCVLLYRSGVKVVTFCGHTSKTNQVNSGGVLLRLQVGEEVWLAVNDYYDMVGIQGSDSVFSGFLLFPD

The substance “combination of trastuzumab and pertuzumab” gave a PE-signal (geomean) of 2160.
